The supplement of paper PMC7125110
Variants at the floor of the assay were thinned out.

B1: glmS ribozyme (parent)
chain: AUAAAAGCGCCAGAACUACAGAAAUGUAGUUGACGAGGAGGAGGUUUAUCGAAUUUUCGGCGGAUGCCUCCAAA

Tests used:
Details in all cases: with glucosamine-6-phosphate
glucosamine-6-phosphate [1] = variants of: B1; test: self-cleavage kobs at 40 uM GlcN6P; higher = faster cleavage; RNA array
Procedure, shortened: (§1)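 A hybridised Cy3 probe tracked barcoded ribozyme variants, transcribed in situ by E. coli RNA polymerase on sequenced MiSeq chips, at 37 °C. The variants received 40 μM to 10 mM glucosamine-6-phosphate in HEPES/KCl/Mg(OAc)2 buffer. kobs came from decay fits and kcat and KM from weighted Michaelis–Menten fits.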

glucosamine-6-phosphate [2] = variants of: B1; test: self-cleavage kobs at 10000 uM GlcN6P; higher = faster cleavage; RNA array
Procedure, shortened: as §1

glucosamine-6-phosphate [3] = variants of: B1; test: self-cleavage kobs at 160 uM GlcN6P; higher = faster cleavage; RNA array
Procedure, shortened: as §1

glucosamine-6-phosphate [4] = variants of: B1; test: self-cleavage kobs at 640 uM GlcN6P; higher = faster cleavage; RNA array
Procedure, shortened: as §1

glucosamine-6-phosphate [5] = variants of: B1; test: self-cleavage kobs at 2500 uM GlcN6P; higher = faster cleavage; RNA array
Procedure, shortened: as §1

Variant | self-cleavage kobs at 40 uM GlcN6P (glucosamine-6-phosphate [1]) | self-cleavage kobs at 10000 uM GlcN6P (glucosamine-6-phosphate [2]) | self-cleavage kobs at 160 uM GlcN6P (glucosamine-6-phosphate [3]) | self-cleavage kobs at 640 uM GlcN6P (glucosamine-6-phosphate [4]) | self-cleavage kobs at 2500 uM GlcN6P (glucosamine-6-phosphate [5])
AUAAACGCGCGAGAACUACAGAAAUGUAUUUGAGGAGGAGGAGGUUUAUCCAAUUUUCGGCGGAUGCCUCCAAA | < 1e-05 s⁻¹ |  |  |  | 
AUAAACGCGCCAGAACUACAGAAAUGUAGUUGAAGAGGAGGAGGUUUAUCGAAUUUUAGGCGGAUGCCUCCAAA | < 1e-05 s⁻¹ | < 1e-05 s⁻¹ |  |  | 
AUAAACCCGCCAGAACUACAGAAAUGUAGUUGACGAGGAGGAGGUUUAUCGAAUUUUCGGCGGAUGCCUCCAAA | < 1e-05 s⁻¹ | < 1e-05 s⁻¹ | < 1e-05 s⁻¹ | < 1e-05 s⁻¹ | < 1e-05 s⁻¹
AUAAACGCCCUAGAACUACAGAAAUGUAGUUGAGGAGAAGGAGGUUUAUCGAAUCUUCAGCGGAUGUCUCCAAA | < 1e-05 s⁻¹ | < 1e-05 s⁻¹ |  |  | 
AUAAACGCGCCAUAACUACAGAAAUGUAGUUGACGAGGAGGAGGUUUAUCGAUUUUUCGGCGGAUGCCUCCAAA | < 1e-05 s⁻¹ | < 1e-05 s⁻¹ |  |  | 
AUAAACGCGCCAGAACUACAGAAAUGUAGUUGACGAGGAGGAGGUUUAUAGAAUUUUCGGCGGAUGCCUCCAAA | < 1e-05 s⁻¹ | < 1e-05 s⁻¹ |  |  | 
AUAAACGCGCCAGAAAUACAGAAAUGUAAUUGACGAGGAGGAGGUUUAUCGAAUUUUCGGCGCAUGACUCCAAA | < 1e-05 s⁻¹ |  |  |  | 
AUAAACGCGCCAUAACUACAGAAAUGUAGUUGACGAGGAGGAGGUUUAUCGAAUUUUAGGCGGCUGCCUCCAAA | < 1e-05 s⁻¹ |  | < 1e-05 s⁻¹ | < 1e-05 s⁻¹ | < 1e-05 s⁻¹
AUAAACGCGCCAAAACUACAGAAAUGUAGUUGACGAGGAGGAGGUUUAUCGCAUUUUCGGCGGAUGCCUCCAAA | < 1e-05 s⁻¹ | < 1e-05 s⁻¹ |  |  | < 1e-05 s⁻¹
AUAAACGGGCCAGAACUACAGAAAUGUAGUUGACGAGGAGGAGGUUUAUCAAAUUUUCGGCGGAUGCCUCUAAA | < 1e-05 s⁻¹ | < 1e-05 s⁻¹ |  |  | 
AUAAACGUGCCAGAACUACAGAAAUGUAGUUGACGAGGAGGAGGUUUAUCGAAUUUUCGGCGGAUGCAUACAAA | < 1e-05 s⁻¹ |  |  |  | 
AUAAACGAGCCAGAACUACAGAAAUGUAGUUGACGAGGAGGAGGUUUUUCGCAUUUUCGGCGGAUGCCUCCAAA | < 1e-05 s⁻¹ | < 1e-05 s⁻¹ |  |  | 
AUAAACGCGCCAGAACUACAGAAAUGUAGUUGACGAGGAGGAGGUUUAUCGAAUUUUCGGGGGAUGCCUCCAAA | < 1e-05 s⁻¹ | < 1e-05 s⁻¹ |  | < 1e-05 s⁻¹ | 
AUAAACGGGCCAGAACUACAGAAAUGUAGUUGACGAGGAGGAGGUUUAUCGAAUUUUCGGCGGAUGCCUCCAAA | < 1e-05 s⁻¹ | < 1e-05 s⁻¹ |  | < 1e-05 s⁻¹ | < 1e-05 s⁻¹
AUAAACGCGCCAGAACUACAGAAAUGUAGUUGAUGAGGAGGAGGUUUAUCGAAUUUUCGGCGGAUGCCUCCAAA | < 1e-05 s⁻¹ | < 1e-05 s⁻¹ | < 1e-05 s⁻¹ | < 1e-05 s⁻¹ | < 1e-05 s⁻¹
